Key:
[1] = target: His6-MKK7 Kinase Domain (MKK7_KD, residues 101–405, Ser271Asp and Thr275Asp) (UniProt O14733); assay: other fluorescence titration; tryptophan fluorescence quenching; 1.25 μM MKK7_KD in 10 mM phosphate buffer pH 7.5, peptide added stepwise, 25.0 °C, excitation 295 nm, emission read at 333 nm
[2] = target: T1, Recombinant His6-GADD45β, O75293; assay: cross-linking; SDA reacted first with GADD45β (preliminary reaction order), then photo-cross-linking; settings: remark: other sources report otherwise
T1 chain: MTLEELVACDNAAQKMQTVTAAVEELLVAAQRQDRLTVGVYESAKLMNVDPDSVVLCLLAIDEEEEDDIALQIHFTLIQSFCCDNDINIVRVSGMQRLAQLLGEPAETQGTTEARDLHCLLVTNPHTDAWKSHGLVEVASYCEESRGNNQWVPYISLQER

[3] = target: T2, His6-MKK7 Kinase Domain (MKK7_KD, residues 101–405, Ser271Asp and Thr275Asp) (UniProt O14733 101-405, Ser271Asp | Thr275Asp); assay: ELISA; MKK7_KD coated on polystyrene wells at 100 nM; biotinylated GADD45β at 10–160 nM; detection with Streptavidin-HRP; 1:1 curve fit; settings: both partners purified
T2 construct: Theoretical mass with tag is printed as 36194.8 Da; In the GADD45β cross-linking experiment this protein was first labelled on amines with SDA (NHS-diazirine); also called MKK7_KD 101–405; MKK7_KD (101–405); source: E. coli BL21(DE3), pETDuet-1, purified (His-Trap, Superdex 75 gel filtration)
T2 sequence (looked up): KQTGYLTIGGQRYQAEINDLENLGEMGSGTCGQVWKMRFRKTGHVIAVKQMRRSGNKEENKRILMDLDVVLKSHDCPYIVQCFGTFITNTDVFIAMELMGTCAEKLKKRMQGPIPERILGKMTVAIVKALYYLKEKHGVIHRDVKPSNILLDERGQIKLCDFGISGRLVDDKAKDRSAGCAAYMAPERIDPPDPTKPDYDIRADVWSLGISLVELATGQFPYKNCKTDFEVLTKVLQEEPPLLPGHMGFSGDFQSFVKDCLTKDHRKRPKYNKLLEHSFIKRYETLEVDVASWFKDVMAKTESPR

[4] = target: T2, His6-MKK7 Kinase Domain (MKK7_KD, …); assay: SPR; Biacore3000; GADD45β covalently immobilised on a CM5 chip (EDC/NHS, pH 3.5), soluble MKK7_KD injected; KD averaged over the values at the various concentrations; settings: both partners purified

Molecule: DTP3 (Ac-D-Tyr-D-Arg-D-Phe-NH2) (peptide)
- Kd [1]: 100 nM

B1: Recombinant His6-GADD45β, O75293 1-160 (natural protein)
chain: T1 chain
- stoichiometry N [2]: 2

B2: biotinylated GADD45β (natural protein, UniProt O75293 1-160, looked up)
chain: T1 chain
modifications: biotin (site not stated)
notes: GADD45β, UniProt O75293, 160 amino acids; as m1, biotinylated; also called biotin-GADD45β; biotinylated variant of GADD45β; source: E. coli BL21(DE3), pET28a, purified (His-Trap, gel filtration), biotinylated
- Kd [3]: ~30 nM

B3: Recombinant His6-GADD45β (natural protein, UniProt O75293 1-160, looked up)
chain: T1 chain
notes: GADD45β, UniProt O75293, 160 amino acids; The theoretical mass of the tagged protein is printed as 19196.6 Da, against 17,818 Da for the 160-residue protein; also called Growth arrest and DNA-damage-inducible GADD45-family member GADD45β; source: E. coli BL21(DE3), pET28a, purified (His-Trap, Superdex 75 gel filtration)
- Kd [4]: ~6 nM
